# Biological target: rpod_ecoli rpoD (UniProt P00579)
# Sequence (P00579 whole entry): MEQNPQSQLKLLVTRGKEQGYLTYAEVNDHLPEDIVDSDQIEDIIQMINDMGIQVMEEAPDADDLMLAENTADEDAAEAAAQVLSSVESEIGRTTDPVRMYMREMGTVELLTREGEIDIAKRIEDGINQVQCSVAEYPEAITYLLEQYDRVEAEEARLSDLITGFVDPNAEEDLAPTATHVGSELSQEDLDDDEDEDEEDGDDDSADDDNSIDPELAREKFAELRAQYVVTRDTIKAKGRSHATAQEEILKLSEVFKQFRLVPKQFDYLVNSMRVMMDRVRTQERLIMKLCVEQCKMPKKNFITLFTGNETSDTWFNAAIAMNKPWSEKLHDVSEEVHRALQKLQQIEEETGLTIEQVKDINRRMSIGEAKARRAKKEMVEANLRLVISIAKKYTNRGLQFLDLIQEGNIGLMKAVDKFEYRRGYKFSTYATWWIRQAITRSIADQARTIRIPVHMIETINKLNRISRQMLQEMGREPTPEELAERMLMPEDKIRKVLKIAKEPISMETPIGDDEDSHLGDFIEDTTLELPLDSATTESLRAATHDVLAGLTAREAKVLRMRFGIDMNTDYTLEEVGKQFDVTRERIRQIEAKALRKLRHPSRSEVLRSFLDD
row,Substance,effect of a mutation on the interaction
1,DNA-directed RNA polymerase subunit beta' (Escherichia coli (strain K12)) (from UniProt P0A8T7) A302D,decreasing interaction
2,DNA-directed RNA polymerase subunit beta' (Escherichia coli (strain K12)) (from UniProt P0A8T7) E295K,decreasing interaction
3,DNA-directed RNA polymerase subunit beta' (Escherichia coli (strain K12)) (from UniProt P0A8T7) N309D,increasing interaction

# More lines, now with the values ahead:
row,effect of a mutation on the interaction,Substance
1,increasing interaction,DNA-directed RNA polymerase subunit beta' (Escherichia coli (strain K12)) (from UniProt P0A8T7) Q300E
2,decreasing interaction,DNA-directed RNA polymerase subunit beta' (Escherichia coli (strain K12)) (from UniProt P0A8T7) R275Q
3,decreasing interaction,DNA-directed RNA polymerase subunit beta' (Escherichia coli (strain K12)) (from UniProt P0A8T7) R293Q
4,decreasing interaction,DNA-directed RNA polymerase subunit beta' (Escherichia coli (strain K12)) (from UniProt P0A8T7) R297S

# From IntAct's records for PubMed 10764785
